Assay results published in paper PMC12041282.

Target: ectodomain of the SFTSV Gn glycoprotein (amino acids 20-453), Gn-his (SFTSV)
Experiment: SPR

Q: Which Kd does the source give for “Recombinant human LRP1 CLII-Fc (Fc fusion)” here?
A: 16.8 nM
